Test results: article PMC4338599 (Science (New York, N.Y.), 2015)

Biological target: the molecule itself
Experiment: native MS

B1: PAXX residues 1-145 (PAXX^1-145) (domain or fragment)
chain: MDPLSPPLCTLPPGPEPPRFVCYCEGEESGEGDRGGFNLYVTDAAELWSTCFTPDSLAALKARFGLSAAEDITPRFRAACEQQAVALTLQEDRASLTLSGGPSALAFDLSKVPGPEAAPRLRALTLGLAKRVWSLERRLAAAEET
stoichiometry N: 2
